Data as given in patent US20230212319A1, “NOVEL ANTIGEN BINDING DOMAINS AND SYNTHETIC ANTIGEN RECEPTORS INCORPORATING THE SAME” (University of Southern California, priority 2020, published 2023).

B1: 22105 (protein)
chain: MALPVTALLLPLALLLHAARPDIQMTQSPSSLSASVGDRVTITCKASDHINNWLAWYQQKPGQAPKLLIYGATTLETGVPSRFSGSGSGTDYTLTISSLQPEDFATYYCQQSWNTPWTFGQGTKLEIKRLEDLKNVFPPEVAVFEPSEAEISHTQKATLVCLATGFYPDHVELSWWVNGKEVHSGVCTDPQPLKEQPALNDSRYCLSSRLRVSATFWQNPRNHFRCQVQFYGLSENDEWTQDRAKPVTQIVSAEAWGRADCGFTSESYQQGVLSATILYEILLGKATLYAVLVSALVLMAMVKRKDSRGRAKRSGSGATNFSLLKQAGDVEENPGPTSATMDWIWRILFLVGAATGAHSGPQVQLQESGGGLAQAGGSLRLSCAASGRTFSMGWFRQAPGKEREFVAAITYSGGSPYYASSVRGRFTISRDNAKNTVYLQMNSLKPEDTAVYYCAANPTYGSDWNAENWGQGTQVTVSSGSGGGGSGGGGSGGGGSFEQVQLQQPGAELVKPGASVKMSCKASGYAFSSYWINWMKQKPGQGLEWIGQIYPGDGDTNYNGKFKGRATLTADTSSSTAYMQLSSLTSEDSAVYFCARSITTVVGCAMDYWGQGTSVTVSSTRIQNPDPAVYQLRDSKSSDKSVCLFTDFDSQTNVSQSKDSDVYITDKCVLDMRSMDFKSNSAVAWSNKSDFACANAFNNSIIPEDTFFPSPESSCDVKLVEKSFETDTNLNFQNLSVIGFRILLLKVAGFNLLMTLRLWSSRAKRSGSGVKQTLNFDLLKLAGDVESNPGPSRGHMTEYKPTVRLATRDDVPRAVRTLAAAFADYPATRHTVDPDRHIERVTELQELFLTRVGLDIGKVWVADDGAAVAVWTTPESVEAGAVFAEIGPRMAELSGSRLAAQQQMEGLLAPHRPKEPAWFLATVGVSPDHQGKGLGSAVVLPGVEAAERAGVPAFLETSAPRNLPFYERLGFTVTADVEVPEGPRTWCMTRKPGA
B2: 22161 (protein)
chain: MALPVTALLLPLALLLHAARPACEVQLLESGGGLIQPGGSLRLSCAASGFTFSSHAMTWVRQAPGKGLEWVSAISGSGDYTHYADSVKGRFTISRDNSKNTVYLQMNSLRAEDSAVYYCAKDEDGGSLLGHRGQGTLVTVSSGTGGGGSGGGGSGGGGSEFDIQMTQSPSSLSASVGDRVTITCKASDHINNWLAWYQQKPGQAPKLLIYGATTLETGVPSRFSGSGSGTDYTLTISSLQPEDFATYYCQQSWNTPWTFGQGTKLEIKRLEDLKNVFPPEVAVFEPSEAEISHTQKATLVCLATGFYPDHVELSWWVNGKEVHSGVCTDPQPLKEQPALNDSRYCLSSRLRVSATFWQNPRNHFRCQVQFYGLSENDEWTQDRAKPVTQIVSAEAWGRADCGFTSESYQQGVLSATILYEILLGKATLYAVLVSALVLMAMVKRKDSRGRAKRSGSGATNFSLLKQAGDVEENPGPTSATMDWIWRILFLVGAATGAHSGPEVQLVESGGGLVQAGGSLRLSCAASGRTFSMGWFRQAPGKEREFVAAITYSGGSPYYADSVKGRFTISRDNAKNTVYLQMNSLKPEDTAVYYCAANPTYGSDWNAENWGQGTQVTVSSGSGGGGSGGGGSGGGGSFEQVQLQQPGAELVKPGASVKMSCKASGYAFSSYWINWMKQKPGQGLEWIGQIYPGDGDTNYNGKFKGRATLTADTSSSTAYMQLSSLTSEDSAVYFCARSITTVVGCAMDYWGQGTSVTVSSTRIQNPDPAVYQLRDSKSSDKSVCLFTDFDSQTNVSQSKDSDVYITDKCVLDMRSMDFKSNSAVAWSNKSDFACANAFNNSIIPEDTFFPSPESSCDVKLVEKSFETDTNLNFQNLSVIGFRILLLKVAGFNLLMTLRLWSSRAKRSGSGVKQTLNFDLLKLAGDVESNPGPSRGHMTEYKPTVRLATRDDVPRAVRTLAAAFADYPATRHTVDPDRHIERVTELQELFLTRVGLDIGKVWVADDGAAVAVWTTPESVEAGAVFAEIGPRMAELSGSRLAAQQQMEGLLAPHRPKEPAWFLATVGVSPDHQGKGLGSAVVLPGVEAAERAGVPAFLETSAPRNLPFYERLGFTVTADVEVPEGPRTWCMTRKPGA
B3: 22115 (protein)
chain: MALPVTALLLPLALLLHAARPQVQLVESGGGLVQPGGSLRLSCAASGFTFTNHAMSWVRQAPGKGLELVSSISGNGRTTYYADSVKGRFTISRDISKNTLDLQMNSLRAEDTAVYYCAKDGGETLVDSRGQGTLVTVSSLEDLKNVFPPEVAVFEPSKAEIAHTQKATLVCLATGFYPDHVELSWWVNGKEVHSGVCTDPQPLKEQPALNDSRYCLSSRLRVSATFWQNPRNHFRCQVQFYGLSENDEWTQDRAKPVTQIVSAEAWGRADCGITSASYHQGVLSATILYEILLGKATLYAVLVSALVLMAMVKRKDSRGRAKRSGSGATNFSLLKQAGDVEENPGPTSTMALPVTALLLPLALLLHAARPQVQLVESGGGLVQPGGSLRLSCAASGFTFTNHAMSWVRQAPGKGLELVSSISGNGRTTYYADSVKGRFTISRDISKNTLDLQMNSLRAEDTAVYYCAKDGGETLVDSRGQGTLVTVSSLESGGGGSFEQVQLQQPGAELVKPGASVKMSCKASGYAFSSYWINWMKQKPGQGLEWIGQIYPGDGDTNYNGKFKGRATLTADTSSSTAYMQLSSLTSEDSAVYFCARSITTVVGCAMDYWGQGTSVTVSSTRIQNPDPAVYQLRDSKSSDKSVCLFTDFDSQTNVSQSKDSDVYITDKCVLDMRSMDFKSNSAVAWSNKSDFACANAFNNSIIPEDTFFPSSDVPCDVKLVEKSFETDTNLNFQNLSVIGFRILLLKVAGFNLLMTLRLWSSRAKRSGSGVKQTLNFDLLKLAGDVESNPGPSRGHMTEYKPTVRLATRDDVPRAVRTLAAAFADYPATRHTVDPDRHIERVTELQELFLTRVGLDIGKVWVADDGAAVAVWTTPESVEAGAVFAEIGPRMAELSGSRLAAQQQMEGLLAPHRPKEPAWFLATVGVSPDHQGKGLGSAVVLPGVEAAERAGVPAFLETSAPRNLPFYERLGFTVTADVEVPEGPRTWCMTRKPGA

Legend:
Assay type in all cases: cell-based
RAJI-CD19-KO cells = assay: JNG assay, co-culture with RAJI-CD19-KO cells; conditions: co-culture with Raji-CD19-KO
How it was run: (§1)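 Jurkat-NFAT-GFP (JNG) cells stably expressing SAR constructs via lentiviral transduction and puromycin/blasticidin selection were cocultured with target cells at E:T ~1:2 for ~4–18 h. NFAT-driven GFP was measured by FACS versus parental JNG cells; scores +/- to 5+ denote ~5–50% GFP-positive cells.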

Nalm6 cells = assay: JNG assay, co-culture with Nalm6 cells; conditions: co-culture with Nalm6
How it was run: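 Read-out: % GFP-positive cells by flow cytometry after ~4 to 18 h coculture of SAR-transduced JNG cells with targets (E:T about 1:2). Scores reflect GFP induction above parental JNG controls: +/- ≈5%, + ≈10%, up to 5+ ≈50%.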

RAJI cells = assay: JNG assay, co-culture with RAJI cells; conditions: JNG cells expressing construct, co-culture with Raji
How it was run: as §1

RS;411 = assay: JNG assay, co-culture with RS;411 cells; conditions: co-culture with RS411
Method: Cellular supernatant is collected and assayed for the induction of cytokines (e.g., IL2).
JNG (Jurkat cells expressing EGFP under an NFAT promoter) were infected with lentiviral vectors encoding different single chain and multi-chain SARs by spinfection in the presence of 8 µg/ml of Polybrene® (Sigma, Catalog no. H9268). The Jurkat-NFAT-GFP cells are engineered in such a way that the IL-2 promoter, which carries NFAT binding sites, is cloned upstream of the GFP gene. These cells have been used to study signaling via TCR and CAR. The different SARs were stably expressed in Jurkat NFAT-GFP cells by lentiviral mediated gene transfer, followed by selection with puromycin or blasticidin. No drug selection was used in case the construct lacked an antibiotic resistance gene. The SAR-expressing Jurkat-NFAT-GFP cells were cocultured with the target cells at E:T ratio of approximately 1:2 for approximately 4 hours to 18 hours. When the interaction between SIRs and their target antigen results in activation of the NFAT pathway, GFP expression is induced. […] GFP expression was monitored by FACS analysis. The Jurkat-NFAT-GFP (parental) cells were used as control. The structure of different constructs can be determined based on their names. […] The sequence of the other constructs in the table can be similarly determined from their names and by referring to the different Tables of this disclosure that provide the names and SEQ ID NO of the different modules. Alternatively, the composition and modular architecture of the different SAR constructs can be determined from their sequences by bioinformatics tools, including using nucleic acid and amino acids homology searches. A SAR is considered positive in the assay in case the SAR expressing Jurkat-NFAT-GFP cells show greater % GFP positive cells when cultured with the target cell line as compared to parental Jurkat-NFAT-GFP cells. […] In general, the number +/-, +, 2+, 3+, 4+, 5+ refer to approximately 5%, 10%, 20%, 30%, 40% and 50% GFP positive cells. The % of GFP induction in the above assay is dependent not only the relative strength of the SAR but also, among other factors, on the relative level of expression of the SAR in the JNG cells and the relative level of expression of the target antigen in the target cell line. To control for the difference in gene transduction efficiency of the different SAR constructs, the experiment was conducted with JNG cells transduced with SAR constructs co-expressing a drug resistance gene (e.g., puromycin or PAC) followed by drug selection to generate a stable population of SAR-expressing cells. It is to be noted that the drug resistance gene (e.g., PAC) in the SAR constructs is optional and in vivo studies were conducted with SAR constructs lacking the PAC gene.

Molecule	NFAT-GFP ASSAY: Raji-CD19-KO (RAJI-CD19-KO cells)	NFAT-GFP ASSAY: Nalm6 (Nalm6 cells)	NFAT-GFP ASSAY: Raji (RAJI cells)	NFAT-GFP ASSAY: RS411 (RS;411)
B1	4+ (refer to approximately 5%, 10%, 20%, 30%, 40% and 50% GFP positive cells)	5+ (refer to approximately 5%, 10%, 20%, 30%, 40% and 50% GFP positive cells)	–	–
B2	+/- (refer to approximately 5%, 10%, 20%, 30%, 40% and 50% GFP positive cells)	+/- (refer to approximately 5%, 10%, 20%, 30%, 40% and 50% GFP positive cells)	+/- (refer to approximately 5%, 10%, 20%, 30%, 40% and 50% GFP positive cells)	–
B3	–	–	–	2+ (refer to approximately 5%, 10%, 20%, 30%, 40% and 50% GFP positive cells)
